Results as given in US20250218531A1 (ABSCI, published 2025).

target: human epidermal growth factor receptor 2 (HER2) extracellular domain (human, UniProt P04626 23-629); experiment: SPR

Binder	Kd
AI Design 7 (multi-step AI designed trastuzumab variant, native HCDR1) (Fab, V domains shown, Fab format; also called GFNIKDTY / IDPANGYT / ARVGGRGYYYYDY) VH: EVQLVESGGGLVQPGGSLRLSCAASGFNIKDTYIHWVRQAPGKGLEWVARIDPANGYTRYADSVKGRFTISADTSKNTAYLQMNSLRAEDTAVYYCARVGGRGYYYYDYWGQGTLVTVSS VL: not shown	134 nM
AI Design 3 (multi-step AI designed trastuzumab HCDR1/2/3 variant) (Fab, V domains shown, Fab format; also called GFNIKDYY / IYPSRGYT / ARHGSEGRYTMDV) VH: EVQLVESGGGLVQPGGSLRLSCAASGFNIKDYYIHWVRQAPGKGLEWVARIYPSRGYTRYADSVKGRFTISADTSKNTAYLQMNSLRAEDTAVYYCARHGSEGRYTMDVWGQGTLVTVSS VL: not shown	192 nM
AI Design 2 (multi-step AI designed trastuzumab HCDR1/2/3 variant) (Fab, V domains shown, Fab format; also called GFNISDYY / IYPSSGYT / ARDGGVGSYSMDV) VH: EVQLVESGGGLVQPGGSLRLSCAASGFNISDYYIHWVRQAPGKGLEWVARIYPSSGYTRYADSVKGRFTISADTSKNTAYLQMNSLRAEDTAVYYCARDGGVGSYSMDVWGQGTLVTVSS VL: not shown	1320 nM
AI Design 8 (multi-step AI designed trastuzumab variant, native HCDR1) (Fab, V domains shown, Fab format; also called GFNIKDTY / IYPSNGYT / ARYGGSYAYYFYY) VH: EVQLVESGGGLVQPGGSLRLSCAASGFNIKDTYIHWVRQAPGKGLEWVARIYPSNGYTRYADSVKGRFTISADTSKNTAYLQMNSLRAEDTAVYYCARYGGSYAYYFYYWGQGTLVTVSS VL: not shown	18.6 nM
AI Design 9 (multi-step AI designed trastuzumab variant, native HCDR1 and HCDR2) (Fab, V domains shown, Fab format; also called GFNIKDTY / IYPTNGYT / ARYYGSSSYYFAY) VH: EVQLVESGGGLVQPGGSLRLSCAASGFNIKDTYIHWVRQAPGKGLEWVARIYPTNGYTRYADSVKGRFTISADTSKNTAYLQMNSLRAEDTAVYYCARYYGSSSYYFAYWGQGTLVTVSS VL: not shown	60.6 nM
AI Design 4 (multi-step AI designed trastuzumab HCDR1/2/3 variant) (Fab, V domains shown, Fab format; also called GFNIKDTW / IDPANGYT / ARVGGRGYYYYDY) VH: EVQLVESGGGLVQPGGSLRLSCAASGFNIKDTWIHWVRQAPGKGLEWVARIDPANGYTRYADSVKGRFTISADTSKNTAYLQMNSLRAEDTAVYYCARVGGRGYYYYDYWGQGTLVTVSS VL: not shown	394 nM
AI Design 6 (multi-step AI designed trastuzumab variant, native HCDR1) (Fab, V domains shown, Fab format; also called GFNIKDTY / IDPADGYT / AREGGYGYYAMDY) VH: EVQLVESGGGLVQPGGSLRLSCAASGFNIKDTYIHWVRQAPGKGLEWVARIDPADGYTRYADSVKGRFTISADTSKNTAYLQMNSLRAEDTAVYYCAREGGYGYYAMDYWGQGTLVTVSS VL: not shown	160 nM
AI Design 5 (multi-step AI designed trastuzumab HCDR1/2/3 variant) (Fab, V domains shown, Fab format; also called GFNFKDTY / IYPANGYT / ASDGGSYSYAFDY) VH: EVQLVESGGGLVQPGGSLRLSCAASGFNFKDTYIHWVRQAPGKGLEWVARIYPANGYTRYADSVKGRFTISADTSKNTAYLQMNSLRAEDTAVYYCASDGGSYSYAFDYWGQGTLVTVSS VL: not shown	642 nM
AI Design 1 (multi-step AI designed trastuzumab HCDR1/2/3 variant) (Fab, V domains shown, Fab format; also called GFNVSSSY / IYPENGST / SRYSYYGGYAFDY) VH: EVQLVESGGGLVQPGGSLRLSCAASGFNVSSSYIHWVRQAPGKGLEWVARIYPENGSTRYADSVKGRFTISADTSKNTAYLQMNSLRAEDTAVYYCSRYSYYGGYAFDYWGQGTLVTVSS VL: not shown	225 nM

target: T1, human epidermal growth factor receptor 2 (HER2) extracellular domain (human, UniProt P04626 23-629); experiment: SPR, Fab format

Binder	Kd	log(KD (M))
De novo trastuzumab HCDR3 variant ARYAGVERPGSFAY (SEQ ID NO: 43) (Fab, V domains shown) VH: EVQLVESGGGLVQPGGSLRLSCAASGFNIKDTYIHWVRQAPGKGLEWVARIYPTNGYTRYADSVKGRFTISADTSKNTAYLQMNSLRAEDTAVYYCARYAGVERPGSFAYWGQGTLVTVSS VL: not shown	574 nM	-6.24 log M
De novo trastuzumab HCDR3 variant ARYYGWYYYFDY (SEQ ID NO: 482) (Fab, V domains shown) VH: EVQLVESGGGLVQPGGSLRLSCAASGFNIKDTYIHWVRQAPGKGLEWVARIYPTNGYTRYADSVKGRFTISADTSKNTAYLQMNSLRAEDTAVYYCARYYGWYYYFDYWGQGTLVTVSS VL: not shown	323 nM	-6.49 log M
De novo trastuzumab HCDR3 variant ARYLSDSYAWDY (SEQ ID NO: 490) (Fab, V domains shown) VH: EVQLVESGGGLVQPGGSLRLSCAASGFNIKDTYIHWVRQAPGKGLEWVARIYPTNGYTRYADSVKGRFTISADTSKNTAYLQMNSLRAEDTAVYYCARYLSDSYAWDYWGQGTLVTVSS VL: not shown	434 nM	-6.36 log M
De novo trastuzumab HCDR3 variant ARYHYSGFFMDA (SEQ ID NO: 489) (Fab, V domains shown) VH: EVQLVESGGGLVQPGGSLRLSCAASGFNIKDTYIHWVRQAPGKGLEWVARIYPTNGYTRYADSVKGRFTISADTSKNTAYLQMNSLRAEDTAVYYCARYHYSGFFMDAWGQGTLVTVSS VL: not shown	433 nM	-6.36 log M
De novo trastuzumab HCDR3 variant ARGYGVGASFVY (SEQ ID NO: 496) (Fab, V domains shown) VH: EVQLVESGGGLVQPGGSLRLSCAASGFNIKDTYIHWVRQAPGKGLEWVARIYPTNGYTRYADSVKGRFTISADTSKNTAYLQMNSLRAEDTAVYYCARGYGVGASFVYWGQGTLVTVSS VL: not shown	630 nM	-6.2 log M
De novo trastuzumab HCDR3 variant ASDRYGSYSLVS (SEQ ID NO: 480) (Fab, V domains shown) VH: EVQLVESGGGLVQPGGSLRLSCAASGFNIKDTYIHWVRQAPGKGLEWVARIYPTNGYTRYADSVKGRFTISADTSKNTAYLQMNSLRAEDTAVYYCASDRYGSYSLVSWGQGTLVTVSS VL: not shown	314 nM	-6.5 log M
De novo trastuzumab HCDR3 variant ARTGWGYDNISGYEY (SEQ ID NO: 497) (Fab, V domains shown) VH: EVQLVESGGGLVQPGGSLRLSCAASGFNIKDTYIHWVRQAPGKGLEWVARIYPTNGYTRYADSVKGRFTISADTSKNTAYLQMNSLRAEDTAVYYCARTGWGYDNISGYEYWGQGTLVTVSS VL: not shown	1460 nM	-5.84 log M
De novo trastuzumab HCDR3 variant ARLYYSSFNGM (SEQ ID NO: 485) (Fab, V domains shown) VH: EVQLVESGGGLVQPGGSLRLSCAASGFNIKDTYIHWVRQAPGKGLEWVARIYPTNGYTRYADSVKGRFTISADTSKNTAYLQMNSLRAEDTAVYYCARLYYSSFNGMWGQGTLVTVSS VL: not shown	339 nM	-6.47 log M
De novo trastuzumab HCDR3 variant TRRDFGYYMAY (SEQ ID NO: 494) (Fab, V domains shown) VH: EVQLVESGGGLVQPGGSLRLSCAASGFNIKDTYIHWVRQAPGKGLEWVARIYPTNGYTRYADSVKGRFTISADTSKNTAYLQMNSLRAEDTAVYYCTRRDFGYYMAYWGQGTLVTVSS VL: not shown	547 nM	-6.26 log M
De novo trastuzumab HCDR3 variant AVEGGTRALEP (SEQ ID NO: 483) (Fab, V domains shown) VH: EVQLVESGGGLVQPGGSLRLSCAASGFNIKDTYIHWVRQAPGKGLEWVARIYPTNGYTRYADSVKGRFTISADTSKNTAYLQMNSLRAEDTAVYYCAVEGGTRALEPWGQGTLVTVSS VL: not shown	326 nM	-6.49 log M
De novo trastuzumab HCDR3 variant ARDYDFGLSVGAV (SEQ ID NO: 486) (Fab, V domains shown) VH: EVQLVESGGGLVQPGGSLRLSCAASGFNIKDTYIHWVRQAPGKGLEWVARIYPTNGYTRYADSVKGRFTISADTSKNTAYLQMNSLRAEDTAVYYCARDYDFGLSVGAVWGQGTLVTVSS VL: not shown	358 nM	-6.45 log M
De novo trastuzumab HCDR3 variant ATGLSPSGSNGPY (SEQ ID NO: 491) (Fab, V domains shown) VH: EVQLVESGGGLVQPGGSLRLSCAASGFNIKDTYIHWVRQAPGKGLEWVARIYPTNGYTRYADSVKGRFTISADTSKNTAYLQMNSLRAEDTAVYYCATGLSPSGSNGPYWGQGTLVTVSS VL: not shown	444 nM	-6.35 log M
De novo trastuzumab HCDR3 variant ARNYYGAAYYFDY (SEQ ID NO: 495) (Fab, V domains shown) VH: EVQLVESGGGLVQPGGSLRLSCAASGFNIKDTYIHWVRQAPGKGLEWVARIYPTNGYTRYADSVKGRFTISADTSKNTAYLQMNSLRAEDTAVYYCARNYYGAAYYFDYWGQGTLVTVSS VL: not shown	570 nM	-6.24 log M
De novo trastuzumab HCDR3 variant ARYHYRTIGSFGY (SEQ ID NO: 487) (Fab, V domains shown) VH: EVQLVESGGGLVQPGGSLRLSCAASGFNIKDTYIHWVRQAPGKGLEWVARIYPTNGYTRYADSVKGRFTISADTSKNTAYLQMNSLRAEDTAVYYCARYHYRTIGSFGYWGQGTLVTVSS VL: not shown	367 nM	-6.44 log M
De novo trastuzumab HCDR3 variant ARLGASHGYLYDD (SEQ ID NO: 484) (Fab, V domains shown) VH: EVQLVESGGGLVQPGGSLRLSCAASGFNIKDTYIHWVRQAPGKGLEWVARIYPTNGYTRYADSVKGRFTISADTSKNTAYLQMNSLRAEDTAVYYCARLGASHGYLYDDWGQGTLVTVSS VL: not shown	328 nM	-6.48 log M
De novo trastuzumab HCDR3 variant AWASGYGGYGMDY (SEQ ID NO: 488) (Fab, V domains shown) VH: EVQLVESGGGLVQPGGSLRLSCAASGFNIKDTYIHWVRQAPGKGLEWVARIYPTNGYTRYADSVKGRFTISADTSKNTAYLQMNSLRAEDTAVYYCAWASGYGGYGMDYWGQGTLVTVSS VL: not shown	368 nM	-6.43 log M
De novo trastuzumab HCDR3 variant ARSNNWYSYSFQF (SEQ ID NO: 478) (Fab, V domains shown) VH: EVQLVESGGGLVQPGGSLRLSCAASGFNIKDTYIHWVRQAPGKGLEWVARIYPTNGYTRYADSVKGRFTISADTSKNTAYLQMNSLRAEDTAVYYCARSNNWYSYSFQFWGQGTLVTVSS VL: not shown	278 nM	-6.56 log M
De novo trastuzumab HCDR3 variant ATSGTASWQHYGV (SEQ ID NO: 481) (Fab, V domains shown) VH: EVQLVESGGGLVQPGGSLRLSCAASGFNIKDTYIHWVRQAPGKGLEWVARIYPTNGYTRYADSVKGRFTISADTSKNTAYLQMNSLRAEDTAVYYCATSGTASWQHYGVWGQGTLVTVSS VL: not shown	322 nM	-6.49 log M
De novo trastuzumab HCDR3 variant AYMGSHTIYSFEH (SEQ ID NO: 479) (Fab, V domains shown) VH: EVQLVESGGGLVQPGGSLRLSCAASGFNIKDTYIHWVRQAPGKGLEWVARIYPTNGYTRYADSVKGRFTISADTSKNTAYLQMNSLRAEDTAVYYCAYMGSHTIYSFEHWGQGTLVTVSS VL: not shown	301 nM	-6.52 log M
De novo trastuzumab HCDR3 variant VRSGYDYYSWFAY (SEQ ID NO: 492) (Fab, V domains shown) VH: EVQLVESGGGLVQPGGSLRLSCAASGFNIKDTYIHWVRQAPGKGLEWVARIYPTNGYTRYADSVKGRFTISADTSKNTAYLQMNSLRAEDTAVYYCVRSGYDYYSWFAYWGQGTLVTVSS VL: not shown	465 nM	-6.33 log M
De novo trastuzumab HCDR3 variant ARGYAYYVAGREY (SEQ ID NO: 493) (Fab, V domains shown) VH: EVQLVESGGGLVQPGGSLRLSCAASGFNIKDTYIHWVRQAPGKGLEWVARIYPTNGYTRYADSVKGRFTISADTSKNTAYLQMNSLRAEDTAVYYCARGYAYYVAGREYWGQGTLVTVSS VL: not shown	496 nM	-6.3 log M

target: T1, human epidermal growth factor receptor …; experiment: SPR, Fab format; remark: another data set of the same source

Binder	Kd	log(KD (M))
De novo trastuzumab HCDR1|2|3 variant GFNVSSSY / IYPENGST / SRYSYYGGYAFDY (Fab, V domains shown, also called AI Design 1) VH: EVQLVESGGGLVQPGGSLRLSCAASGFNVSSSYIHWVRQAPGKGLEWVARIYPENGSTRYADSVKGRFTISADTSKNTAYLQMNSLRAEDTAVYYCSRYSYYGGYAFDYWGQGTLVTVSS VL: not shown	225 nM	-6.65 log M
